Measured values: the nanobody polyreactivity screen of Harvey et al. (2022)

test: yeast display, Sf9 membrane polyspecificity reagent, FACS + sequencing; frameworks hold sequencing errors
Outline: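 Genes from sorted yeast were amplified by colony PCR, read by MiSeq 2 × 250 sequencing and filtered on CDR length. These cells carried a synthetic nanobody library in Saccharomyces cerevisiae BJ5465 and were sorted by FACS into low and high (top ~1%) gates on anti-HA and streptavidin fluorescence. Polyreactivity is labelled according to the gate of origin.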

Sequence	polyreactivity (PSR sort gate)
QVQLVESGGGLVQAGGSLRLSCAASGRIFSTYVMGWYRQAPGKERELVAAITRGGSTNYADSVKGRFTISRDNAKNTVYLQMNSLKPEDTAVYYCNAQRRGTYYWGQATQVTVSS	high polyreactivity
QVQLVESGGGLVQAGGSLRLSCAASGRIFSVYAMGWYRQAPGKEREFVAAITKGGVGTYYADSVKGRFTISRDHAKNSVYLQMNSLKPEDTAVYYFAARHYYGADRYYSWGQGTQVTVSS	high polyreactivity
QVQLVESGGGLVQAGGSLRLSCAASGRIFSWYAMGWYRQAPGKERELVADITNGGSTYYADSVKGRFTISRDNAKNTVYLQMNSLKPEDTAVYYCAAAYIHRLGRVLPSVYSIGRDYWGQGTQVTVSS	low polyreactivity
QVQLVESGGGLVQAGGSLRLSCAASGRIFSWYTMGWYRQAPGKERELVASITTGGRTYYADSLKGRFTNSRDNAKNTVYLQMNSLKPEDTAVYSCIVLSTLFGYYRWGDYWGQGTQVTVSS	high polyreactivity
QVQLVESGGGLVQAGGSLRLSCAASGRIFSYMGWYRQAPGKERELVASISWSGGSTYYADSVKGRFTISRDNAKNTVYLQMNSLKPEDTAVYYCAAYLRSYVRYYYWGQGTQVTVSS	high polyreactivity
QVQLVESGGGLVQAGGSLRLSCAASGRIFSYNAMGWYRQAPGKERELVAAISSDGSTYYADSVKGRFTISRDNAKNSVYLQMNSLKPEDTAVYYCAADTWRDGDDYWGQGTQVTVSS	low polyreactivity
QVQLVESGGGLVQAGGSLRLSCAASGRIFSYNAMGWYRQAPGKERELVASISWSGGRTYYADSVKGRFTISRDNAKNTVYLQMNSLKPEDTAVYYCNAAYYTRVWGYDYWGQGTQVTVSS	high polyreactivity
QVQLVESGGGLVQAGGSLRLSCAASGRIFSYYAMGWYRQAPGKERELVAAISKGGTSTYYADSVKGRFTISRDNSKNTVYLQMNRLKPEDTAVYYCAAARPKPVDYLGQGTQVTVSS	high polyreactivity
QVQLVESGGGLVQAGGSLRLSCAASGRIFSYYAMGWYRQAPGKERELVASISTSSGSTYYADSVKGRFTISRDNAKNTVYLQMNSLKPEDTAVYYCNADYTGYYRWRNDDYWGQGTQVTVSS	high polyreactivity
QVQLVESGGGLVQAGGSLRLSCAASGRIFSYYAMGWYRQAPGKERELVASITSGGSTYADSVKGRFTISRDNAKNTVYLQMNSLKPEDTAVYYCNARKRHYYGYYYWGQGTQVTVSS	high polyreactivity
QVQLVESGGGLVQAGGSLRLSCAASGRIFSYYTMGWYRQAPGKEREMVAAITWNGGSTYYADSVKGRFTISRDNAKNTVYLQMNSLKPEDTGVYYCNRDVRYVGPSGFDYWGQGTQVTVSS	high polyreactivity
QVQLVESGGGLVQAGGSLRLSCAASGRIFSYYTMGWYRQAPGTERELVAAITWGGGSTSYADSVKGRFTISRDNAKNTVYLQMNSLKPEDTAVYYCAESPGANRMDYWGQGTQVTVSS	low polyreactivity
QVQLVESGGGLVQAGGSLRLSCAASGRIFSYYTMGWYRQEPRKERELVATITSGVNTNYADSVKGRFTISRDNAKNTVYLQMNSLKPEDTAVFYCIARGTAERDYWGQGTQVTVSS	high polyreactivity
QVQLVESGGGLVQAGGSLRLSCAASGRIFSYYVMGWSRQAPGKERELVAAISYRGGGTYYADSVKGRFTISRDNAKNTVYLQMNSLKPEDTAVYYCNADTYSNTYRAYDYWGQGTQVTVSS	low polyreactivity
QVQLVESGGGLVQAGGSLRLSCAASGRIFTANAMGWYRQAPGKERELVAAISWRGGSTYYADSVKGRFTISRDNAKNTVYLQMNSLKPEDTAVYYCNKVGATWRQWFGYWGQGTQVTVSS	high polyreactivity
QVQLVESGGGLVQAGGSLRLSCAASGRIFTAYTMGWYRQAPGKERELVAAISTSGTSTYYADSVKGRFTISRDNAKNTVYLQMHSLKPEDTAVYYCATDYYYYPHSQYDYWGQGTQVTVSS	low polyreactivity
QVQLVESGGGLVQAGGSLRLSCAASGRIFTEYVMGWYRQAPGKERELVAAAITRGGSTNYADSVKGRFTISRDNAKNTVYLQMNSLKPEDTAVYYCNKDDWPVSRQLYTGKYDSWGQGTQVTVSS	low polyreactivity
QVQLVESGGGLVQAGGSLRLSCAASGRIFTGNALGWYRPAPGKERELVAGISTSGGSTYYADSVKGRFTISRDNAKNTVYLQMNSLKPEDTAVYYCAADWYYRRSYRRMNYWGQGTQVTVSS	high polyreactivity
QVQLVESGGGLVQAGGSLRLSCAASGRIFTGNTMGWYRQAPGKERELVATINSNGGSTYYADSVKGRFTISRDNAKNTVYLQMNSLKPEDTAVYYCAVVRNYVSRYRFYYWGQGTQVTVSS	high polyreactivity
QVQLVESGGGLVQAGGSLRLSCAASGRIFTGNVMGWYRQAPGKERELVAAITYRGGSTYYADSVKGRFTISRDNAKNTVYLQMNSLKPEDTAVYYCAAGYFLGHTYGGDYWGQGTQVTVSS	low polyreactivity
QVQLVESGGGLVQAGGSLRLSCAASGRIFTGYAMGWSRQAPGKERELVASITWRGGSTSYADSVKGRFTISRDNAKNTVYLQMNRLKPEDTAVYYCAAQKWYYPYYWGQGTQVTVSS	high polyreactivity

Sequence	polyreactivity (PSR sort gate)
QVQLVESGGGLVQAGGSLRLSCAASGRIFTGYAMGWYRQAPGKERELVAAINSGGRTNYADSVKGRFTISRDNAKNTVYLQMNSLKPEDTAVYYCAARYTNYGGYYWGQGTQVTVSS	high polyreactivity
QVQLVESGGGLVQAGGSLRLSCAASGRIFTGYAMGWYRQAPGKERELVAAISRGGSTNYADSVKGRFTISRDNAKNTVFLQMNSLKPEDTAVYYCAAGVHWDRGDYWGQGTQVTVSS	low polyreactivity
QVQLVESGGGLVQAGGSLRLSCAASGRIFTHNAMGWYRQAHGKERELVAAISFSGVSTYYADSVKGRFTISRDNAKNTVYLQMNSLKPEDTAVYYCARRYWYPDAFYRYDYWGQGTQVTVSS	low polyreactivity
QVQLVESGGGLVQAGGSLRLSCAASGRIFTHNAMGWYRQAHGKERELVAAISYSGVSTYYADSVKGRFTISRDNAKNTVYLQMNSLIPEDTAVYYCARRYWYPDAFYRYDYWGQGTQGTVSS	low polyreactivity
QVQLVESGGGLVQAGGSLRLSCAASGRIFTHNAMGWYRQAPGKERELVAAITIGGRTNYADSVKGRFTISRDNAKNTVYLQMNSLKPEDTAVYYCARRYGTWNAYDYWGQGTQVTVSS	low polyreactivity
QVQLVESGGGLVQAGGSLRLSCAASGRIFTHYAMGWYRQAPGKERELVAAISRTGGTTNYADSVKGRFTISRDNAKNTVYLQMNSLKPEDTAVYYCAAVGKGAKDYFKYYSLGQGTQVTVSS	high polyreactivity
QVQLVESGGGLVQAGGSLRLSCAASGRIFTINAMGWYRQAPGKERELVAAISNSGGRTYADSVKGRFTISRDNAKNTVYLLMNSLKAEDTAVYYCAKRYRFHFWGQGTQVTVSS	low polyreactivity
QVQLVESGGGLVQAGGSLRLSCAASGRIFTIYAMGLYRQEPGKERELVASITWRGGRTYYADSVKGRFTISRDNAKNTVYLQMNSLKPEDTAVYYCAAEFYRWGSLSFSYDYWGQGTQVTVSS	low polyreactivity
QVQLVESGGGLVQAGGSLRLSCAASGRIFTKNAMGWYRQAPGKERELVAAISWSTSRTYYADSVKGRFTISRDNAKNTVYLQMNSLKPEDTAVYYCAAVYRLRGAFSRGYWGQGTQVTVSS	high polyreactivity
QVQLVESGGGLVQAGGSLRLSCAASGRIFTKYAMGWYRQAPGKERELVAAISGSGGPTYYADSVKGRFTISRDNAKNTVYLQINSLKPEDTAVYYCGVPEIFDPKYQNDYWGQGTQVTVSS	low polyreactivity
QVQLVESGGGLVQAGGSLRLSCAASGRIFTKYAMGWYRQAPGKERELVAGISSSGGSTYYADSVKGRFTISRDIAKNTVYLQMNSLKPEDTAVYYCAARGYYKYDYWGQGTQVTVSS	high polyreactivity
QVQLVESGGGLVQAGGSLRLSCAASGRIFTKYAMGWYRQSPGKERELVAAITTSGGSTYYADSVKGRFTISRDNAKNTVYLQMNSLKPEDTAVYYCAARTYHRYDYWGQGTQVTVSS	high polyreactivity
QVQLVESGGGLVQAGGSLRLSCAASGRIFTNNAMGWYREAPGKERELVAAISKRGGSTYYADSVKGRFTISRDNAKNTVYLQMNSLKPEDTAVYYCNAREYIHWRGALGLFGSWGQGTQVTVSS	high polyreactivity
QVQLVESGGGLVQAGGSLRLSCAASGRIFTPNAMGWYRQAPGKERELVAAITWSGDNTYADSVKGRFTISRDNAKNTVYLQMNSLKPEDTAVYYCAAAYGYGHKKYGYWGQGTQVTVSS	low polyreactivity
QVQLVESGGGLVQAGGSLRLSCAASGRIFTPNAMGWYRQPPGKERELVAAITWSGDNTYADSVKGRFTISRDNAKNTVYLQMNILKPEDTAVYYCAAAYGYGHKKYGYWGQGTQVTVSS	low polyreactivity
QVQLVESGGGLVQAGGSLRLSCAASGRIFTPYVMGWYIQAPGKERELVADINLSGDSTSYADSVKGRFTISRDNAKNTVYLQMNSLKPEDTAVYYCAADFWLVSFQWDFEYDYWGQGTHVTVSS	low polyreactivity
QVQLVESGGGLVQAGGSLRLSCAASGRIFTRYAMGWYRQAPGKERELVATITKSGGSTYYADSVKGRFTISRDNAKNTVSLQMNSQKPDDTAVYYCAADSWWTYQYDYWGQGTQVTVSS	low polyreactivity
QVQLVESGGGLVQAGGSLRLSCAASGRIFTRYAMGWYRQAPGKERELVAVITRSGGSTYYADSVKGRFTISRDNAKNTVYLQMNSLKPEDTAVYYCNVDETGVLVAYSFDYWGQGTQVTVSS	low polyreactivity
QVQLVESGGGLVQAGGSLRLSCAASGRIFTRYVMGWSRQAPGKERELVAAISYRGGRTYYADSVKGRFTISRDNAKNTVYLQMNSLKPEDTAVYYCAVDYTLADVIYDYWGQGTQVTVSS	high polyreactivity
QVQLVESGGGLVQAGGSLRLSCAASGRIFTSNAMAWYRQAPGKERELVAAISASGGRTYYADSVKGRFTISRDNAKNTVYLQMNSLKPEDTAVYYCAALSTGRLSDHGYWGQGTQVTVSS	high polyreactivity
